Our source for the stoichiometry N values is publication PMC6813330.

This test addresses IbpS (iron-binding protein secreted), translocated region of D. dadantii IbpS (residues 28-372) (Dickeya dadantii 3937). The test is described as follows: SEC-MALS; Superdex S200 5/150 GL increase; 25 µl IbpS at 10 mg/ml in 50 mM Tris-Cl pH 7.0, 100 mM NaCl. (In general: In gel filtration, larger molecules generally elute earlier.)

For “IbpS (iron-binding protein secreted), translocated region of D. dadantii IbpS (residues 28-372) (natural protein)”, the stoichiometry N – broadly, the number of molecules, sites or subunits per partner or assembly – was 2.
